Experimental data as given in patent US20200148774A1 (Genentech, published 2020).

B1: ch6E7 (antibody, V domains shown)
VH: QVQLQQSGPELVKPGASVKISCKASGYSFTDYYMHWVKQSHIKSLEWIGRINPYNGAAFYSQNFKDKASLTVDKSSSTAYMELHSLTSEDSAVYYCAIERGADLEGYAMDYWGQGTSVTVSS
VL: DIVLTQSPSSLIVSLGQRATISCRASQSVSTSSYNYMHWYQQKPGQPPKLLLKYASNLESGVPARFSGSGSGTDFTLNIHPVEEEDTATYYCQHSWEIPLTFGAGTKLEIK
notes: chimeric version of m6E7, human IgG; also called chimeric 6E7; Chimeric 6E7
B2: ch21C9 (antibody, V domains shown)
VH: EVQLQQSGPELVKPGASVKMSCKASGYTFTDYYLDWVKQSHGESFEWIGRVNPYNGGTIYNQKFKGKATLTVDKSSSTAYMDLNSLTSEDSAVYYCARDHYRYDPLLDYWGQGTTLTVSS
VL: DIQMTQSHKFMSTSVGDRVSITCKASQDVSTAVAWFQQKPGQSPKLLIYSPSYRYTGVPDRFTGSGSGTDFTFTISSVQAEDLAVYYCQQLYSTPYTFGGGTKLEIK
notes: chimeric version of m21C9, human IgG; also called chimeric 21C9; Chimeric 21C9
B3: 38E4v11 (antibody, V domains shown)
VH: EVQLVQSGAEVKKPGASVKVSCKASGFTFTSYYIHWVRQAPGQGLEWIGWIYPENDNTKYNEKFKDRVTITADTSTSTAYLELSSLRSEDTAVYYCARDGYSRYYFDYWGQGTLVTVSS
VL: DIVMTQSPDSLAVSLGERATINCKSSQSLLNSRTRKNYLAWYQQKPGQSPKLLIYWTSTRKSGVPDRFSGSGSGTDFTLTISSLQAEDVAVYYCTQSFILRTFGQGTKVEIK
notes: also called h38E4v11
B4: 38E4v11 Fab (Fab, V domains shown)
VH: B3 VH
VL: B3 VL
notes: Fab; also called 38E4v11 (Fab Biacore measurements)

Columns and labels:
[1] = target: T1, cynomolgus CLL-1 on cells (recombinant on HEK293AD cells) (cynomolgus monkey); assay: Scatchard (125I-antibody competition), 293AD/cynoCLL-1 cells
T1 construct: also called 293AD/cynoCLL-1; 293AD/cynoCLL1
T1 chain: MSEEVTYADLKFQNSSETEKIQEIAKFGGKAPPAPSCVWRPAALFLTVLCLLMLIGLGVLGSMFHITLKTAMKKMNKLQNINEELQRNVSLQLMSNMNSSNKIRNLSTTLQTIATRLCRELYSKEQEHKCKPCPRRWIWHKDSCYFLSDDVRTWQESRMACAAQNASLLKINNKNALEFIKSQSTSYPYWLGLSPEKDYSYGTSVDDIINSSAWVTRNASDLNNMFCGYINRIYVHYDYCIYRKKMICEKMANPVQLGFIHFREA
Description: (§1) Anti-CLL-1 antibodies were [I¹²⁵] labeled using the indirect lodogen method. […] Competition assay mixtures of 50 μL volume containing a fixed concentration of [1¹²⁵] labeled antibody and decreasing concentrations of serially diluted, unlabeled antibody were placed into 96-well plates. HEK293AD cells stably expressing recombinant hu or cynoCLL-1 or HL-60 tumor cells expressing endogenous CLL-1 were cultured in growth media at 37° C. in 5% CO₂. Cells were detached from the flask using Sigma Cell Dissociation Solution and were washed with binding buffer, which consisted of Dulbecco's Modified Eagle Medium (DMEM) with 1% bovine serum albumin (BSA), […] and 0.1% sodium azide. The washed cells were added to the 96 well plates at a density of 100,000 cells in 0.2 mL of binding buffer. […] The final concentration of the unlabeled antibody in the competition assay ranged from 1000 nM through ten 2-fold dilution steps to a 0 nM buffer-only assay. Competition assays were carried out in triplicate. Competition assays were incubated for 2 hours at room temperature. […] The filters were counted on a Wallac Wizard 1470 gamma counter (PerkinElmer Life and Analytical Sciences Inc.; Wellesley, Mass.). The binding data was evaluated using NewLigand software (Genentech), which uses the fitting algorithm of Munson and Robard to determine the binding affinity of the antibody (Munson and Robard 1980).

[2] = target: T2, recombinant cynomolgus CLL-1 extracellular domain (ECD, amino acids 65-265) fused to an N-terminal Flag (cynomolgus monkey); assay: SPR (Biacore), chimeric IgG captured by anti-human IgG, CLL-1 as analyte
T2 construct: Construct stated for the immunogen; also called CynoCLL-1 Flag; cynoCLL-1
T2 chain: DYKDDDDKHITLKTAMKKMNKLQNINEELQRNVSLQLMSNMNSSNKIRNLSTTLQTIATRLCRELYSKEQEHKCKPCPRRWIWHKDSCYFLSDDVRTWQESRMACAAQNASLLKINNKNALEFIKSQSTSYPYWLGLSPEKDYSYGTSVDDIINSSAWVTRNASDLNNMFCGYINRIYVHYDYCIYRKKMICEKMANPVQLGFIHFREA
Description: (§2) The chimeric anti-CLL-1 human IgG were captured by mouse anti-human IgG coated on the CM5 sensor chip. […] Association rates (kon) and dissociation rates (koff) were calculated using a simple one-to-one Langmuir binding model. The equilibrium dissociation constant (KD) was calculated as the ratio koff/kon.

[3] = target: T3, recombinant human CLL-1 extracellular domain (ECD, amino acids 65-265) fused to an N-terminal Flag (human, UniProt Q5QGZ9 65-265); assay: as above
T3 construct: The construct and the K244Q SNP are stated for the immunogen; they are not written as a piece; also called huCLL-1-Flag; huCLL-1
T3 chain: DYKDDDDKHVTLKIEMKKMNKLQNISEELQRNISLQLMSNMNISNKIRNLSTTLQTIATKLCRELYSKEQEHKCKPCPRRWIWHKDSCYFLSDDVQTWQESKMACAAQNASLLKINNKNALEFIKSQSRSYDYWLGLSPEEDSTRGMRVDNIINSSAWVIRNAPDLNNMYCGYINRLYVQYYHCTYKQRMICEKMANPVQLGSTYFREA
Description: as §2

[4] = target: T4, human CLL-1 on cells (endogenous on HL-60, EOL-1 and other AML cell lines and CD14+ monocytes); recombinant on … (human, UniProt Q5QGZ9 1-265); assay: Scatchard (125I-antibody competition), 293AD/huCLL-1 cells
T4 construct: also called 293AD/huCLL-1; tumor-derived CLL-1
T4 sequence: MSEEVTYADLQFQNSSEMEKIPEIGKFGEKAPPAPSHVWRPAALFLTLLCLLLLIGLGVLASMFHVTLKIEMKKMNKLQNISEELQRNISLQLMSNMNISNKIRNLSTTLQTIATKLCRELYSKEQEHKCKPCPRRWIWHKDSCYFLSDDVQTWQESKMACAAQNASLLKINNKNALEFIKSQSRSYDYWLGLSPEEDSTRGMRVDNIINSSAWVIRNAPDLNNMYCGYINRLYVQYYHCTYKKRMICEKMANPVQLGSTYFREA
Description: as §1

[5] = target: T4, human CLL-1 on cells (endogenous on …); assay: Scatchard (125I-antibody competition), HL-60 cells
Description: as §1

[6] = target: T3, recombinant human CLL-1 extracellular …; assay: SPR (Biacore T200), IgG captured by anti-human Fc, human CLL-1 as analyte
Description: The binding affinity of the antibodies in this section was determined by BIAcore™ T200 Format. Briefly, BIAcore™ research grade CM5 chips were activated with 1-ethyl-3-(3-dimethylaminopropyl) carbodiimide (EDC) and N-hydroxysuccinimide (NHS) reagents according to the supplier's instructions. Goat anti-human Fc IgGs were coupled to the chips to achieve approximately 10,000 response units (RU) in each flow cell. Unreacted coupling groups were blocked with 1M ethanolamine. For kinetics measurements, antibodies were captured to achieve approximately 300 RU. Three-fold serial dilutions of human CLL-1 was injected in HBS-P buffer (0.01M HEPES pH7.4, 0.15M NaCl, 0.005% surfactant P20) at 25° C. with a flow rate of 30 μl/min. Association rates (kon) and dissociation rates (koff) were calculated using a 1:1 Langmuir binding model (BIAcore™ T200 Evaluation Software version 2.0). The equilibrium dissociation constant (Kd) was calculated as the ratio koff/kon.

hCD3ε [7] = target: T5, hCD3ε (human, UniProt P07766 23-126); assay: SPR (Biacore); target printed only as hCD3; format not stated, not the Fab measurement
T5 construct: Also used for the value printed only as 'hCD3 (0.05 nM'); also called human CD3ε polypeptide
T5 sequence (P07766 23-126): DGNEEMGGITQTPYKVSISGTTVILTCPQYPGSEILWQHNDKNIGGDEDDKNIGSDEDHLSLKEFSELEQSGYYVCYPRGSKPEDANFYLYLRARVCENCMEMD

hCD3ε [8] = target: T5, hCD3ε; assay: SPR (Biacore), Fab
hCD3ε [9] = target: T5, hCD3ε; assay: SPR (Biacore), Fab; Fab

Binder | Kd [1] | Kd [2] | koff [2] | kon [2] | Kd [3] | koff [3] | kon [3] | Kd [4] | Kd [5] | Kd [6] | Kd (hCD3ε [7]) | Kd (hCD3ε [8]) | koff (hCD3ε [8]) | kon (hCD3ε [9])
B1 | 1000 pM | 1100 pM | 0.00046 s⁻¹ | 400000 M⁻¹ s⁻¹ | 900 pM | 0.00044 s⁻¹ | 460000 M⁻¹ s⁻¹ | 800 pM | 650 pM | 959 pM | – | – | – | –
B2 | 1200 pM | 7100 pM | 0.0012 s⁻¹ | 160000 M⁻¹ s⁻¹ | 9700 pM | 0.0024 s⁻¹ | 250000 M⁻¹ s⁻¹ | 590 pM | 450 pM | 8620 pM | – | – | – | –
B3 | – | – | – | – | – | – | – | – | – | – | 50 pM | – | – | –
B4 | – | – | – | – | – | – | – | – | – | – | – | 32 pM | 0.0016 s⁻¹ | 5e+07 M⁻¹ s⁻¹
